Assay results: the nanobody polyreactivity screen of Harvey et al. (2022)

Assay: yeast display, Sf9 membrane polyspecificity reagent, FACS + sequencing; frameworks hold sequencing errors
Summary of the method: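 A nanobody's polyreactivity label depends on the gate it was sorted from. Yeast display cells were stained with 10% biotinylated, detergent-solubilized Sf9 membrane reagent for 1 hour at 4 °C, enriched on streptavidin microbeads and sorted by FACS. The low and high (top ~1%) gates were set on anti-HA fluorescence for expression and streptavidin fluorescence for reagent binding.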

Sequence	polyreactivity (PSR sort gate)
QVQLVESGGGLFQAGGSLRLSCAASGYIFGSYVMGWYIQAPGKERELVAAISRRGGSTYYADSVKGRFTISRDNAKNTVYLQMNSLNPEDTAVYYCAADDGQYAKYDYWGQGTQVTVSS	high polyreactivity
QVQLVESGGGLVQAGGSLRLSCAASGRIFAYNAMGLYRQAPGKERELVADISSGGNTYYADSVKGRFTISRDNAKNTVYLQMNSLKPEDTAVYYCAKYTYDYWGQGTQVTVSS	low polyreactivity
QVQHVESGGGLVQEGGSLRLICSASGIIFSWYAMGWYRQAPGKERELVATISGGGGSTYYADSVKGRFTISRENAKNTVYLQMNRLKPEDTAVYYCAADYWNFNWRYKLYRPYDYWGQGTQVTVSS	high polyreactivity
QGQLVESGGGLVQAGGSLRLSCAASGLTFGYYDMGWYRQAPGKERELVAAITVRGGSTYYADSVKGRFTISRDNAKNTVYLQINSLKPEDTAVYYFNKRLFWSRHYYYWGQGTQVTVSS	high polyreactivity
QVQLVESGGGLVQAGGSLRLSCAASGRIFIVNAMGWYRQAPGKERELVAAIRTGGSNTYYADSVKGRFTISRDNAKNTVSLQMTSLKPEDTAVYYCNARSTRRINYWGQGTQVTVSS	high polyreactivity
QVQLVESGGGLVQAGGSLRLSCAASGYNFKPNTMGWYRQAPGKERELVAAITRGGRTKYADSVKGRFTISRDNAKNTVYLQMNSLKPEDTAVYYCATRVHKSTDGYDYWGQGTQVTVSS	high polyreactivity
QVQLVESRGGLVQAGGSLRLSCAASGNTFRIYTMGWYRQAPGKDRELVATITRRGGYTYYADSVKGRFTISRDNAKNTVYLQMNSLKPEDTAVYYCNALPRPSYTFDYWGQGTQVTVSS	high polyreactivity
QVQLVESGGGLVQAGGSLRLSCAASGRTFTTNAMGWYRQAPGKERELVAAITSTTRTYYADSVKGRFTISRDNAKNTVYLQMNSLKPEDTAVYFCAARYPTPWGYYYWGQGTQVTVSS	high polyreactivity
QVQLVESGGGLDQARGSLRLSCAASGRIFYTYAMGWYRRAPGKERELVAAISRSGTSTYYADSVKGRFTISRDNAKNTVYLQMNSLKPEDTAVYYCAAAKWYSVAYVGTFKYDYWGQGTQVTVSS	high polyreactivity
QDHLVDSGGGLVQAGGSLRLSCAAYGFTFYYNTMGWYRQAPGKERQLVAAISYSAGSTFYADSVKGRFTISRDNAKNTVYLQMNSLKPEDTAVYYCAAGRPRLHKGYHFGYWGQGTQVTVSS	low polyreactivity
QVQLVESGGGLVQAGGSLRLSCAASGFTFGNYAMGWYRQAPGKERELVAAISSRGGSTYYADSVKGRFTISRDNAKNTVYLQMNSLKPEDTAVYYCNALRLEVDMGYWGQGTQITVSS	high polyreactivity
QVQLVESGGGLVQAGGSLRLSCAASGSIFTSNDMGWYRQAPGKERELVAAITNSGGSTYYADSVKGRFTISGDNAKNTVYLQMNSLKPEDTEVYYCAAEISILPFVTPDTIYGYWGQGTQVTVSS	low polyreactivity
QVQLVESGGGLVQAGGSLRLSCAASGYIFYTYAMGWYRQAPGKERELVAGINRGDSTNYADSVKGRFTISRDNAKNTVYLQMNSLKPEDTAVYYCNARQRTYYRTHRIRHKGNGYWGQGTQVTVSS	low polyreactivity
QVQLEESGGALVQAGGSLRLSCAASGRTFSGNAMGWYRQAPGKERELVAAISSGGSTNYADSVKGRFTISRDNAKNTVYLQMNSLKPEDTAVYYCAADEWRFPSYAYYYWGQGTQVTVSS	low polyreactivity
QVQLVESGGGLVQAGGSLRLSCAASGFTFSYNAMGWSRQAPGKERELVAAISSAGSTYYADSVKGRFTISRDNAKNTVYLQMNSLKPEDTAVYYCNAYRRSYRWYGDLGEYWGQGTQVTVSS	high polyreactivity
QVQLVESGGGLVQAGGSLRLSCAASGSIRSYAMGWYRQSPGKERELVAAITRSGGSTYYADSVKGRFTISRDNAKNSVYLQMNSLKPEDTAVYYCAAEVRGKSRSTRVSYRYDYWGQGTQVTVSS	high polyreactivity

Sequence	polyreactivity (PSR sort gate)
QVQLVESGGGLVQAGGRLRLSCAASGRIFYTNYMGWYRHAPGKERELVAAIRSVSTYYADSVKGRFTISRDNAKNTVYLHMNSLNPEDTAVYYCNALRTNRYDYWGQGTQVTVSS	high polyreactivity
QVQLVESGGGVVQAGGSLRLSCAASGFIFNAYAMGSYRQAPGNERELVAAINTSGGRTNYADSVKGRFTISRDNAKNTVYLQMNSLKPEDTAVYYCAARNRFGGNYWGQGTQVTVSS	high polyreactivity
QVQLVDSGGGLVQAGGSLRLSCAASGRTFKRYDMGWYRQAPGKEREFVAAISWTGGSTYYADTVKGRFTISRDHAKNSVYLQMNSLKPEDTAVYYCARKFLWQGFVYWGQGTQVTVSS	low polyreactivity
QVQLVESGGGLVQAGGSLRLSCAASGSIFVYNAKGWYRQAPGKERELVAAISSSGSSTYYADSVKGRFTISRDNAKNTFYLQMNSLKPEDTAVYYCAADPARYGYWNSYDYWGQGTQVTVSS	high polyreactivity
QVQLVESGGGLVQAGGSLRLSCAASGSIFGYYTMGWYRQAPGKERELVAAISKNGGSTYYADSVKGRFTISRDNAKNTVYLQMNSLKPEDTAVYYCAAEYTRKGVSGSGYDYWGQGTQVTVSS	low polyreactivity
QVQLVESGGGLVQAGGRLRLSCAASGFTFRYYALGWYRQAPGKERELVAAISAGGGSTYYADSVKGRFTISRDNAKNNVYLQMHSQKPDDTAVYYCASAGARPGYDYWGQCTQVTVSS	high polyreactivity
QVQLVESGGGLVQAGGSLRLSCAPSGRILAYYAMGWYRQAPGKEREFVAAIDSGSSTNYADSVKGRFTISRDNAKNTVYLQMNSLKPEDTAVYYCAARIRWWYYYLRSQTYYYWGQGTQVTVSS	low polyreactivity
QVQLVESWGGLVQAGGSLRLSCAASGRIFKRNTMGWNRQAPGKQRELVAAITGSSGSTYYADSVKGRFTNSRDNAKNTVYLQMNSLKPEDTAVYYCNTVRSVYQYWPYNYWGQGTQVTVSS	high polyreactivity
QDHLVESGGGLVPAGGSLRLSCAASGRIVYYVMGRYRQAPGKERELVAAISTRGGSTYYADSVKGRFTISRDNPKNTVYLQMNSLKAEDTAVYYCADSSLLTRYNSWGQGTQVTVSS	high polyreactivity
QVPLVESGGGLVQAGGSLRLSCAASGLIFRTYTMGWYRQAPGKERELVATITRRGGTTYYADSVKGRFTLSRDNAKNTVYLQMNSLKPEDTAVYYCAKSPYYTWKYDYWGQGTQVTVSS	high polyreactivity
QDQLVESGGGLVQAGGSLRLSCAASGITFAGYARGWYRQAPGKERELVAAITGRGGSTYYADSVKGRFTISRDNAKNTVYLQMNSLKPEDTAVYYCAARSSKTGTGVRFGYWGQGTQVTVSS	high polyreactivity
QVQLVESGGGLVQAGGSLRLSCAASGSSTLMLMGWYRQAPGKERELVAVITSSGGRTYYADSVKGRFTISRDNAKNTVYLQMNSLKPEDTAVYYCNVDIGVYAYESDYWGQGTQVTVSS	low polyreactivity
QVQLVESGGGLVQAGGSLRLSCAASGSTFGYYAMGWYRQAPGKERELVAAINSGDSTSYAESVKGRFTISRDNAKNTVYLQMNSLKPEDTAVYYCAVRPRRHQYGYWGQGTQVTVSS	low polyreactivity
QVQLVESGGGLVQAGGSLRLSCAASGSTFSDYAMGWYRQATGKERELVAAISKRGGSTYYADSVKGRFTISRDNAKNTVFLQMNSQKPEDTAVYYCNKESLYREFDYWGQGTQVTVSS	low polyreactivity
QVQLVESGGGLVQAGGSLRLSCAASGFTFPYYTMGWYRQAPGKERELVATISYSGGRTYYADSVKGRFTISRDNAKNTVYLQMNSLKPEDTAVYYCNKVVRLQSRYDYWGQGTQVTVSS	high polyreactivity
QVQLEESGGGLVQAGGSLRLSCAASGSIFIYYAMGWYRQAPGKERELVAGINFNGGSTYYADSVKVRFTISRDNAKNTVYLQMNSLKPEDTAVYYCAADELWWTYWDFVTNWYQRDYWGQGTQVTVSS	low polyreactivity
